Reference: publication PMC7291239

How the values were obtained:
[1] = molecular target: AnxA2 6x (AnxA2 A66E with K81A, E189K, R196S, K206A, K212S, E219K, alkylated at Cys-8) (human) (UniProt P07355); assay: cross-linking; Ca2+/membrane sample: AnxA2 (60 ug) bound to LUVs (100 nm, POPC:DOPC:Chol:POPS 40:20:20:20, 100 ug) with 1 mM CaCl2 in HBS pH 7.4, 0.3 mM Biotin3xNHSX-Linker added after 30 min for 30 min; 10% SDS-PAGE, Coomassie; oligomer bands above the dimer position quantified against the monomer band
[2] = molecular target: AnxA2 10x (AnxA2 A66E 6x with R36S, V53A, T54A, K328A in addition, alkylated at Cys-8) (human) (UniProt P07355); assay: as above

crosslinked oligomers, percent of wild type (% of wild type) [1] | crosslinked oligomers, percent of wild type (% of wild type) [2] | Substance
48 | – | AnxA2 6x (AnxA2 A66E with K81A, E189K, R196S, K206A, K212S, E219K, alkylated at Cys-8) (from UniProt P07355 21-339) (natural protein)
– | 33 | AnxA2 10x (AnxA2 A66E 6x with R36S, V53A, T54A, K328A in addition, alkylated at Cys-8) (from UniProt P07355 21-339) (natural protein)
